According to article PMC7784741 (Protein Science : A Publication of the Protein Society, 2020):

Biological target: YAP-binding domain of human TEAD4, TEAD4 217-434 (human, UniProt Q15561 217-434, biotin (N-biotinylated Avi tag))
Assay: AlphaScreen or HTRF

Chain of YAP-binding domain of human TEAD4, TEAD4 217-434 (Q15561 217-434): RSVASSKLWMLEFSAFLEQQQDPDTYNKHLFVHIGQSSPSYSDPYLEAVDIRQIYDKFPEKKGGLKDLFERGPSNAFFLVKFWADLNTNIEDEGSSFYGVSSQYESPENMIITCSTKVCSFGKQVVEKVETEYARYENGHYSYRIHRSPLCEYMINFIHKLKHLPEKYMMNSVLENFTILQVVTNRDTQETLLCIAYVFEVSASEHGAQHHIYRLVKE

Binder: DSETDLEALFNAVMNPKTANVPQTVPMRLRKLPDSFFKPPE [YAP 60-100 (partner of TEAD4 in the TR-FRET assay)]
- binding result: binds
